The subject of test [1] is HCC70 clusters. As to the kind of experiment: qPCR of RAB25 and CLDN7 in HCC70 clusters. Particulars: 3 ng/mL. It counts as cell-based, human. The text has this: (§1) FIG. 7A is a qPCR measurement of EPGN expression in HCC70 clusters. n=3 biological replicates. P-values=unpaired t-tests. […] P-values=unpaired t-tests. FIG. 7C is a quantification of individual lung metastasis areas (lungs three weeks after tail vein injection of 200,000 Ctrl-kd or Epgn-kd HCC70 clustered cells). n (# of metastases): Ctrl-kd=299, Epgn-kd=87. n (# of mice): 7 per condition. Box plot=5-95%. P-value=Mann-Whitney test. […] Line=non-linear regression. Band=95% CI. n=3 biological replicates. P-value=extra sum-of-squares F test. […] P-value=Mann-Whitney test. FIG. 7F is a quantification of internal FITC-streptavidin intensity biotin leak-in assay of HCC70 clusters after 6 days of treatment with or without 3 ng/mL IFNγ). n=60 untreated clusters, 70 IFNγ treated clusters. n=3 biological replicates. P-value=Mann-Whitney test. FIG. 7G is a TEM of HCC70 clusters after 6 days with and without IFNγ treatment (3 ng/mL). MP=microvilli-like protrusions. J=cell-cell junctions. FIG. 7H is a qPCR of (left) RAB25 and (right) CLDN7 in HCC70 clusters after 0, 3, and 6 days with and without 3 ng/mL IFNγ treatment. n=3 biological replicates. P-value=unpaired t-test. […] 3 weeks later, lung metastases were scored by staining for the human-specific marker CD298. […]
Human or mouse tumor cell clusters were pelleted and snap frozen in liquid nitrogen. […] Data were analyzed using the ΔΔCt method.

In test [2] the test system is MDA-MB-231. The test is described as follows: Biotin permeability of MDA-MB-231 clusters. It counts as cell-based, human. The settings on record: MDA-MB-231, with or without treatment.
The subject of test [3] is HCC70 clusters. As to the kind of experiment: Biotin leak-in permeability assay of HCC70 clusters. It counts as cell-based, human. Particulars: 6 days, 3 ng/mL.
Description: as §1, with “replicates.” for “replicates. P-value=Mann-Whitney test. FIG. 7G is a TEM of HCC70 clusters after 6 days with and without IFNγ treatment (3 ng/mL). MP=microvilli-like protrusions. J=cell-cell junctions. FIG. 7H is a qPCR of (left) RAB25 and (right) CLDN7 in HCC70 clusters after 0, 3, and 6 days with and without 3 ng/mL IFNγ treatment. n=3 biological replicates. P-value=unpaired t-test.”
Phalloidin staining and DAPI were used to define membrane and nuclear areas, respectively. Using the freehand line tool in FIJI software, lines along cell-matrix (outer membrane), cell-cell (intercellular) membranes, and intracellular (cytosolic) areas were drawn and median fluorescence intensity was measured for each channel. […] To assess biotin permeability in tumor vs. stroma areas, mean FITC-streptavidin signal was measured in FIJI in equally sized squares in adjacent pure tumor or pure stroma areas. […]

Test [4] concerns HCC70 tumor cell clusters. As to the kind of experiment: Viable cell quantification of HCC70 clusters after 6 days of IFNγ treatment. The format is cell-based, human. The source says:
FIG. 7A is a qPCR measurement of EPGN expression in HCC70 clusters. n=3 biological replicates. P-values=unpaired t-tests. […] P-values=unpaired t-tests. FIG. 7C is a quantification of individual lung metastasis areas (lungs three weeks after tail vein injection of 200,000 Ctrl-kd or Epgn-kd HCC70 clustered cells). n (# of metastases): Ctrl-kd=299, Epgn-kd=87. n (# of mice): 7 per condition. Box plot=5-95%. P-value=Mann-Whitney test. […] Line=non-linear regression. Band=95% CI. n=3 biological replicates. P-value=extra sum-of-squares F test. […] P-value=Mann-Whitney test. FIG. 7F is a quantification of internal FITC-streptavidin intensity biotin leak-in assay of HCC70 clusters after 6 days of treatment with or without 3 ng/mL IFNγ). n=60 untreated clusters, 70 IFNγ treated clusters. n=3 biological replicates. P-value=Mann-Whitney test. FIG. 7G is a TEM of HCC70 clusters after 6 days with and without IFNγ treatment (3 ng/mL). MP=microvilli-like protrusions. J=cell-cell junctions. FIG. 7H is a qPCR of (left) RAB25 and (right) CLDN7 in HCC70 clusters after 0, 3, and 6 days with and without 3 ng/mL IFNγ treatment. n=3 biological replicates. P-value=unpaired t-test. FIGS. 7I and 7J: HCC70 single cells were aggregated for 24 hrs then treated with or without 2 ng/mL IFNγ treatment. After 6 days of treatment, clusters from each condition were injected by tail vein into NSG mice, with 200,000 viable clustered cells injected per animal. 3 weeks later, lung metastases were scored by staining for the human-specific marker CD298. Sizes of individual HCC70 metastases at 3 weeks after tail vein injection. n=8 mice/condition, 217 untreated metastases, 79 IFNγ pre-treated metastases. Box plot=5-95%. P-value=Mann-Whitney test (7I). […]
Human cell lines were cultured in complete media (DMEM or RPMI with penicillin/streptomycin+10% FBS) on tissue-culture treated plates, or in non-adherent plates supplemented with 2% Matrigel (v/v). […] Human organoids were cultured with 2% (v/v) or 100% growth factor reduced Matrigel (Corning) with HuMEC Ready media (Fisher 12752010).

In test [5] the test system is HCC70 clusters. As to the kind of experiment: Tail vein lung metastasis assay of IFNγ pre-treated HCC70 clusters in NSG mice. It counts as in vivo. Particulars: clusters pre-treated 6 days at 2 ng/mL, 3 weeks.
Description: as §1, with “test.” for “test. FIG. 7G is a TEM of HCC70 clusters after 6 days with and without IFNγ treatment (3 ng/mL). MP=microvilli-like protrusions. J=cell-cell junctions. FIG. 7H is a qPCR of (left) RAB25 and (right) CLDN7 in HCC70 clusters after 0, 3, and 6 days with and without 3 ng/mL IFNγ treatment. n=3 biological replicates. P-value=unpaired t-test.”
For single cell vs. cluster experiments, mTomato-PyMT organoids were dissociated to single cells at day 0 using Accumax (20 minutes at 37° C.). […] DIC images were taken before injection and assessed to ensure similar number and size of clusters injected between conditions. 3 weeks after tail vein injection mice were euthanized and lungs imaged under a dissecting microscope for quantification of fluorescent (metastatic) area. […]

Test [6] relates to HCC70 clusters. As to the kind of experiment: TEM of HCC70 clusters with and without IFNγ. The format is cell-based, human. The settings on record: 6 days, 3 ng/mL.
Description: as §1, with “t-test. FIGS. 7I and 7J: HCC70 single cells were aggregated for 24 hrs then treated with or without 2 ng/mL IFNγ treatment.” for “t-test.”

The test system of test [7] is MDA-MB-231. The test is described as follows: Viable cell quantification of MDA-MB-231 after 6 days of IFNγ treatment. The format is cell-based, human. The settings on record: MDA-MB-231, viable cells after 6 days of treatment.
Test [8] relates to HCC70 clusters. The test is described as follows: pHH3 immunofluorescence (mitotic cells) and cell death in HCC70 clusters. It counts as cell-based, human.
Setting [9] is: HCC70 tumor cell clusters, viable cells after 6 days of treatment.

Experimental findings from patent US20220257632A1, “MICROLUMENAL TARGETING OF CANCER CELLS” (Fred Hutchinson Cancer Research Center, priority 2019, published 2022) are described below.

B1: interferon gamma (protein, UniProt P01579 24-161, looked up)
Interferon gamma: QDPYVKEAENLKKYFNAGHSDVADNGTLFLGILKNWKEESDRKIMQSQIVSFYFKLFKNFKDDQSIQKSVETIKEDMNVKFFNSNKKKRDDFEKLTNYSVTDLNVQRKAIHELIQVMAELSPAAKTGKRKRSQMLFRG
notes: a cytokine FDA-approved for use in patients
For the molecule B1, in the test on HCC70 clusters [1], the “CLDN7 expression (qPCR)” value is on record as “significant reduction” and the “RAB25 expression (qPCR)” value is “significant reduction”. Further, in the test on MDA-MB-231 [2], the biotin permeability result is listed as “highly biotin-permeable in both the absence or presence of IFNγ treatment”. The “intercellular permeability by biotin-leak assay” value with HCC70 clusters [3] is “increased intercellular permeability”. For the same molecule, the outgrowth entry in test [4] (HCC70 clusters) is on record as “markedly reduced outgrowth”. For the same molecule, in test [4] (setting [9]), the concentration for half-maximal inhibition (IC50) came to 0.58 ng/mL and the IC75 is 0.97 ng/mL. Moreover, in the test with HCC70 clusters [5], the “number of lung metastases” value is “fewer” and the “size of lung metastases” value is reported as “significantly smaller”. In addition, in the test on HCC70 clusters [6], the “microlumenal spacing and electron-dense junctions by TEM” value was “increased microlumenal spacing and decreased electron-dense junctions”. In the test with MDA-MB-231 [7], this molecule had an IC50 of 4.24 ng/mL and an IC75 of 22.3 ng/mL. In the test with HCC70 clusters [8], the cell death result is “not increased cell death”. In the test with HCC70 clusters [8] (6 days, 3 ng/mL), the “proliferation (% pHH3+ nuclei)” value was “strong suppression of proliferation”.
